Reference: the supplement of paper PMC10567573

B1: CHIT1 (parent)
chain: CSWKGATKQRIQDQKVPYIFRDNQ

Variants of: B1
Assay: protein stability index of a GFP-peptide fusion (GPS, HEK-293T) (PSI 1-6); higher = more stable
Conditions: c terminus: a fixed tail appended
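Also: lentivirally expressed fusions sorted by FACS into six bins by GFP to DsRed ratio, PSI derived from sequencing read proportions per bin multiplied by bin number.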

Protein stability index of substitutions, site by site:
S2: Y 1.49
I11: K 2.69, M 2.5, T 2.66, A 2.85, V 2.98, R 3.15, P 2.1, S 3.01, W 2.07, F 2.44, D 3.74, L 3.14, H 3.42, N 2.56, Q 3.54, G 2.32, C 2.3, E 3.33, Y 2.51
R10: T 3.68, H 2.94, F 2.5, Q 2.8, D 2.71, S 2.81, K 2.67, P 2.47, V 2.43, G 2.38, I 1.64, W 1.67, N 3.46, E 3.87, Y 2.54, C 2.63, M 2.6, A 3.57, L 2.41
I19: D 3.88, Y 1.95, W 2.06, T 2.77, M 3.54, E 3.31, C 2.35, V 2.88, L 2.3, H 3.02, K 3.67, N 3.17, F 2.08, P 1.87, A 3.19, R 3.28
Q12: H 2.09, P 2.78, L 2.18, Y 2.38, T 2.9, A 2.67, F 1.69, W 1.12, E 2.45, I 2.02, G 2.31, N 2.28, M 3.82, R 1.83, D 3.08, S 2.6
Y18: M 2.41, V 3.46, R 3.08, G 4.15, W 2.19, N 3.4, D 3.5, T 3.02, K 3.34, F 2.12, H 2.74, I 2.23, P 2.58, C 2.7, A 2.88
K15: S 2.29, M 2.28, Q 2.19, D 3.09, F 1.54, Y 3.73, P 3.22, N 2.75, G 2.15, R 2.31, I 2.44, C 2.99, L 2.2, T 2.48, H 2.26, V 1.39
Q9: G 2.88, H 2.66, E 2.42, M 2.29, P 2.25, T 2.8, W 1.39, I 2.92, R 2.37, V 2.44, N 2.62, A 2.5, F 1.94, D 2.58, L 1.78, C 1.07, K 2.44, Y 2.17, S 2.57
W3: G 3.19, E 4.03, M 2.69, Q 3.6, S 3.14, I 2.95, Y 3.04, F 2.78, D 3.73, A 2.78, R 3.71, V 3.46, T 3.23, L 2.71, N 2.93, K 3.63, H 3.06, C 2.06
P17: T 2.57, A 2.64, K 2.8, I 1.61, D 3.36, Y 1.75, L 1.33, E 2.3, N 2.51, M 1.37, S 1.81, R 2.67, W 2.04, F 1.54, C 2.75, Q 1.98, H 2.4, G 2.45
Q14: K 1.87, P 2.98, H 3.06, G 2.79, L 2.04, D 2.81, S 2.37, I 2.35, W 1.99, A 3.46, N 2.91, T 2.88, C 2.6, F 2.47, E 2.79, V 1.94, M 2.21, Y 1.92, R 2.34
T7: A 2.51, D 3.29, G 2.77, Q 2.89, C 2.29, L 2.52, W 1.12, K 2.4, I 2.3, S 3.32, V 2.42, E 3.41, H 2.91, F 2.68, N 2.62, M 2.28, R 2.75, Y 3.94, P 2.74
V16: I 2.5, M 2.28, W 2.04, N 2.82, Q 3.07, C 3.13, K 3.11, R 2.31, E 2.85, D 2.86, H 2.27, S 2.11, T 2.37, L 2.55, F 2.32, G 2.73, Y 1.95, P 3.31
D13: W 1.25, T 2.56, G 2.15, A 2.81, E 2.52, L 1.75, Q 2.31, C 2.47, F 1.8, R 1.69, P 1.83, N 1.61, Y 1.83, M 2.91, V 2.42, I 1.5, K 1.84, S 1.73, H 1.78
F20: G 2.87, R 3.08, M 3.53, S 3.13, A 3.11, P 3.13, I 2, C 3.11, Q 3.61, V 3.09, D 3.16, E 3.99, K 3.17, T 3.71, H 3.29, L 3.47, N 2.93, Y 2.74
K4: L 1.84, T 2.49, R 2.75, S 2.6, C 2.36, D 2.7, V 1.94, E 2.43, P 3.33, N 2.5, Y 2.2, G 2.68, M 2.6, F 1.26, I 2.04, A 1.94, H 3.06, Q 3.06, W 2.12
R21: F 2.47, I 2.18, A 3.06, C 2.11, G 2.98, D 3.49, H 2.38, E 3.68, K 2.83, L 2.9
A6: K 2.23, E 2.79, T 2.27, I 2.32, G 1.82, D 3.47, R 2.73, L 2.43, P 3.05, N 2.83, H 2.51, Q 2.54, C 2.06, F 2.14, V 2.25, W 4.23, Y 2.31, M 2.64, S 2.4
K8: A 2.58, M 2.01, Q 2.12, Y 2.4, L 2.77, N 2.54, W 2.03, P 2.23, D 2.59, F 2.21, H 2.53, T 2.07, G 2.95, S 2.44, E 3.19, R 2.81, I 2.15, C 1.76, V 3.23
G5: E 3.34, R 2.38, N 2.69, T 2.53, W 3.45, C 1.57, K 2.79, M 2.02, L 2.77, Y 2.12, D 2.67, I 2.11, V 2.32, P 2.38, F 1.37, S 3.28, H 2.59
